Test results as given in article doi:10.1101/2022.04.21.488985 (bioRxiv, 2022).

Target: T1, bovine serum albumin (Bos taurus, UniProt P02769)
T1 construct: also called BSA
Assay: ELISA

T1 sequence (P02769 25-607): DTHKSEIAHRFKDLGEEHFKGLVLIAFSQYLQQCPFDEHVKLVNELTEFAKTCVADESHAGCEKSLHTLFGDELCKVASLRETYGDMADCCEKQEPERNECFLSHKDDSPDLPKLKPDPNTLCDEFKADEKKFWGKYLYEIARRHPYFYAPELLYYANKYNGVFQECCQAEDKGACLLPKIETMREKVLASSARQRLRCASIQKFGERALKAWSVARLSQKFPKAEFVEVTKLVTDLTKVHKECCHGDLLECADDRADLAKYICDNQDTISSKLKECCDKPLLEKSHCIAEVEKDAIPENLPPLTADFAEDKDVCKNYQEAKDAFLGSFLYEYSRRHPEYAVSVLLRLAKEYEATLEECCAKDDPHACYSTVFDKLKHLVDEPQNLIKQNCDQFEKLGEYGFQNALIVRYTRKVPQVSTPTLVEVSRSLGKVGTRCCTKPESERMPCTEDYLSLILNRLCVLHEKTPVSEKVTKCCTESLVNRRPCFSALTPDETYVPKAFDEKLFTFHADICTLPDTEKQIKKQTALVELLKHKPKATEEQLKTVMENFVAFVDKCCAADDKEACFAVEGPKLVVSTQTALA

B1: D5 nanobody (camel VHH) (VHH)
VHH: AWQLVESGGGSVQPGGSLTLTCQASKSTFSTSGMRWERQAQGKGVEFVADISSDSTRKWYSDSVKGRFTISRSNWWRTVTLQMNDLKPEDTARYYCKDLESHHLRGQGTQVTVSS
notes: also called single domain antibody D5
B1: no binding.
